Laboratory results as given in patent US10617652B2, “Polymers and polymeric nanogels with hydrophilics encapsulation and release capabilities and methods thereof” (University of Massachusetts, priority 2014, dated 2020).

Biological target: T1, acid α-glucosidase (GAA) (Homo sapiens, UniProt P10253)
T1 construct: purchased Genzyme, Inc. (Myozyme)
Assay: GAA activity assay with para-nitrophenol-α-D-glucopyranoside substrate
Type: biochemical
Procedure: The activity of the encapsulated GAA, relative to the free GAA, was evaluated. It was envisioned that the enzyme would be less available to the substrate, when encapsulated, and therefore would have a lower activity. It follows then that the activity will be recovered when exposing the nanogel to lower pH, as the enzyme will be released in response to the β-thioester cleavage based decrosslinking. The enzymatic activity was measured using para-nitrophenol-α-D-glucopyranoside as substrate, the GAA-assisted cleavage of the α-1,4-linkage of which releases the chromophore p-nitrophenolate (pNP). […] Note, however, that the enzymatic activity of GAA itself at pH 7.4 is undetectable (FIG. 4a).
To activate the GAA from the nanogel, the pH of the solution was reduced to 5.0 using acetate buffer. […] To calibrate the percentage of activity that was recovered after 48 hours of incubation at pH 5.0, the enzymatic activity of the GAA from the nanogel was compared with that of the free enzyme at the same concentration. […]
GAA activity was measured using para-nitrophenol-α-D-glucopyranoside as a substrate in 100 mM Citrate/100 mM Sodium Phosphate buffer at pH 5.0. […] Presence of the product formation (para-nitrophenolate) was then measured by absorbance of 400 nm light on a Molecular Devices Spectra Max M5 at 25° C. […]

**Q.** acid α-glucosidase [GAA] was tested. Which “enzymatic activity at pH 7.4” value did it give?
**A.** undetectable
